From FireProtDB (doi:10.1021/bi972642d) come the findings set out here.

For this series the following is noted: Bos taurus; pH 7; 25 °C; Urea; CD; Potassium phosphate 10 mM; whole UniProt chain shown.

B1: Protein S100-G wild type, P02633 (protein)
chain: MSAKKSPEELKGIFEKYAAKEGDPNQLSKEELKLLLQTEFPSLLKGPSTLDELFEELDKNGDGEVSFEEFQVLVKKISQ
With B1, the denaturant m value came to 1.17 kcal/mol/M, the “denaturant midpoint (higher = more stable)” value came out at 5.6 M and the unfolding free energy was found to be 6.55 kcal/mol.
